Patent US20250340636A1, “ANTIBODIES TARGETING L1CAM AND USES THEREOF” (MEMORIAL SLOAN-KETTERING CANCER CENTER, priority 2023, published 2025)
Substitutions are numbered along the chain they refer to.

B1: Fab 3: humanized 76H12 Fab variant, preferred; design in Table 86 (antibody, V domains shown)
VH: QVQLVQSGAEVKKPGASVKVSCKASGYTFTSYWMHWVRQAPGQGLEWIGNVYPGSGSTKYAQKFQGRATLTVDTSTSTVYMELSSLRSEDTAVYYCARPGNYEGFAYWGQGTLVTVSS
VL: DIQLTQSPSSLSASVGDRVTITCRASESVDSYGSSFMHWYQQKPGKPPKLLIYLASNLESGVPSRFSGSGSGTDFTLTISSLQPEDFATYYCQQNNEDPWTFGQGTKLEIK
B2: Fab 4: humanized 76H12 Fab variant; design in Table 86 (antibody, V domains shown)
VH: B1 VH
VL: B1 VL with G72R
B3: Fab 5: humanized 76H12 Fab variant; design in Table 86 (antibody, V domains shown)
VH: B1 VH
VL: B1 VL with D1N
B4: 14A10: anti-L1CAM mAb from AlivaMab mice (human variable regions, mouse IgG1 Fc); VH SEQ ID NO: 87, VL SEQ ID NO: 88 (antibody, V domains shown)
VH: EVQMVESGGGLVQPGGSLRLSCAAPGFIFSSYNMNWVRQAPGKGLEWVSYISSSSSTTYYADSVKGRFTISRDNAKNSLYLQMNSLRDEDTAVYYCASLYSGYDYYYYYGMDVWGQGTTVTVSS
VL: DIVMTQTPLSSPVSLGQPASISCRSSQSLVHSDGNTYLSWLQQRPGQPPRVLIYKISKRFSGVPDRFSGSGAGTDFTLKISRVEAEDVGVYYCMQATQFPFTFGPGTKVDIK

What was measured:
[1] = biological target: T1, recombinant L1CAM-Fc fusion protein (Homo sapiens, UniProt P32004); test: BLI binding of 76H12 Fabs to recombinant L1CAM-Fc; conditions: L1CAM-Fc on AHC biosensors, Fab 3-200 nM, 1:1 model
T1 construct: purchased R&D Systems; host or cells: mammalian cells
T1 sequence (P32004 20-1120): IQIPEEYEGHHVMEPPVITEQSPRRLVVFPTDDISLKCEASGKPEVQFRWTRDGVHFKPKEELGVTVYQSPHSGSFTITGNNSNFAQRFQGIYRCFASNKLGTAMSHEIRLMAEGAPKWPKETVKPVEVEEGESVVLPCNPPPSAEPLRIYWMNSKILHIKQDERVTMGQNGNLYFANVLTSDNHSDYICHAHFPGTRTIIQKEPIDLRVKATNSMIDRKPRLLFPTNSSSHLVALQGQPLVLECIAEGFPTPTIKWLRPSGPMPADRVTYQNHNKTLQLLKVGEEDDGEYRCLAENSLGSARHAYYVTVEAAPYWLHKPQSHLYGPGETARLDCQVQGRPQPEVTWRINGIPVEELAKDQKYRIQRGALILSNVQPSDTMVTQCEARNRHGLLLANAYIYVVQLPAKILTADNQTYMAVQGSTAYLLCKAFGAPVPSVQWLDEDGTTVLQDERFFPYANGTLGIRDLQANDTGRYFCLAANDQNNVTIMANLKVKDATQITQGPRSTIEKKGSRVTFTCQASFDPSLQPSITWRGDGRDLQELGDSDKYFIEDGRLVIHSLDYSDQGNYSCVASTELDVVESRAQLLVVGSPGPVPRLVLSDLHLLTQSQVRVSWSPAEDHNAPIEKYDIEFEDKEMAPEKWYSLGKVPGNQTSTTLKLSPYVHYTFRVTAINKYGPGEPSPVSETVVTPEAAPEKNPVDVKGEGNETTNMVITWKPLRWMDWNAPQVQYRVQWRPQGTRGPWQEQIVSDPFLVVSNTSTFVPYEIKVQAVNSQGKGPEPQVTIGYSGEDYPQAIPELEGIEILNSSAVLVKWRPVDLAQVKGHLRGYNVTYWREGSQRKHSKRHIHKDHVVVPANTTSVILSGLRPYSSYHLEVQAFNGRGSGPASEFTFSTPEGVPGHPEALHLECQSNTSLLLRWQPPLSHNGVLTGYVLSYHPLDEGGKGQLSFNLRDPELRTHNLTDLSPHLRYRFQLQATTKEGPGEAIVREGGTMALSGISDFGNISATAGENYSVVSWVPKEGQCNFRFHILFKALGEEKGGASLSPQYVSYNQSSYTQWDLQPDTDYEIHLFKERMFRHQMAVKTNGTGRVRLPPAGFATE
Description: A total of 11 humanized 76H12 Fab variants (Fabs 2-12) were generated in addition to a chimeric 76H12 Fab (Fab 1) containing the parental murine VH and VL sequences. The chimeric Fab served as the benchmark for comparative assessment of humanized Fab variants. Humanized Fabs were first assessed by flow cytometry for binding to 293T cells engineered to overexpress L1CAM (FIG. 32A). All humanized variants bound to the L1CAM overexpressing cells, with most binding comparably to the chimeric 76H12 Fab. […] Here, recombinant L1CAM-Fc fusion protein was immobilized onto anti-Human IgG Fc Capture (AHC) biosensors and binding of Fabs was measured kinetically over a 3-200 nM concentration range. Kinetic data were fitted to a 1:1 binding model to compute association (kon) and dissociation (koff) rate constants, in addition to equilibrium dissociation constants (KD) as shown in Table 87. […] From these, Fab 3 represents the preferred humanized variant given higher identity to human germline IGHV1-46 and IGKV1-39 sequences resulting from fewer human-to-murine framework back mutations.

[2] = biological target: T2, HEK293FT cells transiently transfected with mouse L1CAM (Mus musculus, UniProt P11627); test: Flow cytometry binding to HEK293FT cells transiently transfected with mouse L1CAM
T2 construct: expressed in transfected cells; host or cells: HEK293FT (transient)
T2 sequence (P11627 20-1260): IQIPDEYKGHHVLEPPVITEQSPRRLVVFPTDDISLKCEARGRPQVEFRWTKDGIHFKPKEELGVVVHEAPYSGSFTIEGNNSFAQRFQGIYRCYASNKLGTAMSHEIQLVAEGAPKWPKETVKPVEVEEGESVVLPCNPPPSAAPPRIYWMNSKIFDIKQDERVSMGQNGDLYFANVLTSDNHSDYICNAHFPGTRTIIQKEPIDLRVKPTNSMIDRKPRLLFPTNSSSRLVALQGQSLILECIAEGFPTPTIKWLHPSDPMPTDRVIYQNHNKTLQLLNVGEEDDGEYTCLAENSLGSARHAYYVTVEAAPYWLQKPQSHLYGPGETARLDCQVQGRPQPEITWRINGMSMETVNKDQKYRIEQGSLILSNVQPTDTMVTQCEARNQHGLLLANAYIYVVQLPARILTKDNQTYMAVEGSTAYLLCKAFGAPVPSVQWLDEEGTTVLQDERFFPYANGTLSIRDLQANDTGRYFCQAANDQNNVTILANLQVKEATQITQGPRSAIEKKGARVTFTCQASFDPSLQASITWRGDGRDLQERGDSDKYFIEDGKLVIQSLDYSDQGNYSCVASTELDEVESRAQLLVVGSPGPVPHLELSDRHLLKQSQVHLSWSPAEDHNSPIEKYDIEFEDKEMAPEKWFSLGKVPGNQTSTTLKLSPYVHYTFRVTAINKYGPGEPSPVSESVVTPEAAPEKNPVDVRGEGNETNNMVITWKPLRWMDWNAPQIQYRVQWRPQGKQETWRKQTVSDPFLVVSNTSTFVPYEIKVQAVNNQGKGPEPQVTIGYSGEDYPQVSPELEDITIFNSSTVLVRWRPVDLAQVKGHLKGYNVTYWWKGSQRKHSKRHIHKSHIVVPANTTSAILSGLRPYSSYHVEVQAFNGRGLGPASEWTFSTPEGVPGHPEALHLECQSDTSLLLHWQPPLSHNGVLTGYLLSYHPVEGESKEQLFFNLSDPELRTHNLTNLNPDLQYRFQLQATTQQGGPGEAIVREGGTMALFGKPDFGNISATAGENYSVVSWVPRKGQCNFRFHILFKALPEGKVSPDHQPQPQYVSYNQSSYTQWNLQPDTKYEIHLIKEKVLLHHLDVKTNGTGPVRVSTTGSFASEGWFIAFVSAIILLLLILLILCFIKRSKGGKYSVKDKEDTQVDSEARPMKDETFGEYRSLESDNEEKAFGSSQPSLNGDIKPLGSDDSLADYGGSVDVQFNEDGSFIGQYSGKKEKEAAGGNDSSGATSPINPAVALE
Method: Hybridoma Screening. Binding to human L1CAM protein was tested by ELISA and to a HEK293T cell line overexpressing human L1CAM by flow cytometry. […] Cross-reactivity to cynomolgus L1CAM was not assessed at this point, as it is >99% homologous to human L1CAM. […] The antibodies were tested for binding to MDA-MB-231 cells, a breast cancer cell line that endogenously expresses L1CAM, followed by analysis of their internalization efficacy in MDA-MB-231 cells.
Binding Analysis. […] Dissociation constants (KD) for binding to soluble human and cynomolgus monkey L1CAM-His were determined using biolayer interferometry (BLI). In addition, EC50 values for binding to cell-bound L1CAM were established by flow cytometry using HEK293T/FT cells overexpressing human or mouse L1CAM, MCF-7 cells, and MDA-MB-231 cells. In addition, the epitope regions of the mAbs were determined by BLI interaction analysis with L1CAM subdomains (Ig and FN) expressed individually, and by a BLI competition experiment to identify epitope bins.
The binding curves for each antibody and cell line normalized to secondary antibody only staining (MFI ratio) are shown in FIGS. 14A-14C. EC50 values were determined by non-linear regression (Table 70). […] It is possible that differences in the conformation and oligomerization of L1CAM, depending on the surface expression level, contributed to the binding pattern. […]

Row | Molecule | affinity for L1CAM relative to the chimeric Fab (Fab 1) [1] | cross-reactivity with mouse L1CAM [2]
1 | B1 | equivalent or better affinity than the chimeric Fab | 
2 | B2 | equivalent or better affinity than the chimeric Fab | 
3 | B3 | equivalent or better affinity than the chimeric Fab | 
4 | B4 |  | cross-reacted with mouse L1CAM
